From patent US8394929B2, “Nogo receptor-mediated blockade of axonal growth” (Yale University, priority 2000, dated 2013) come the findings set out here.

For test [1], the system named is GST-Nogo-induced growth cone collapse. Nature of the test: Blockade of Nogo-induced growth cone collapse in chick DRG cultures. The note with it: GST-Nogo / Nogo-66 as collapsing agent. The class given is cell-based. As to the method: (§1) For all experiments involving cell culture, the following methods were employed. The culture of embryonic chick E10 and E12 dorsal root ganglion explants and dissociated neurons utilized methods described for E7 dorsal root ganglion cultures (Takahashi et al., (1998) Nature Neurosci. 1, 487-493; Takahashi et al., (1999) Cell 99, 59-69; Goshima et al., (1995) Nature 376, 509-514; Jin & Strittmatter, (1997) J. Neurosci. […]). NGF-differentiated PC12 cells were cultured as described (Strittmatter et al., (1994) J. Neurosci. 14, 2327-2338). Embryonic spinal cord explants (rat E10 or chick E5) were cultured for 7-14 days in the presence of PDGF-AA to induce differentiation of some cells into mature oligodendrocytes (Vartanian et al., (1999) Proc. Natl. Acad. Sci. USA 96, 731-735). The procedure for growth cone collapse assays is identical to that for analysis of Sema3A-induced growth cone collapse (Takahashi et al., (1998) Nature Neurosci. 1, 487-493; Takahashi et al., (1999) Cell 99, 59-69; Goshima et al., (1995) Nature 376, 509-514; Jin & Strittmatter, (1997) J. Neurosci. 17, 6256-6263). The method for analysis of total neurite outgrowth has also been described (Goshima et al., (1995) Nature 376, 509-514; Jin & Strittmatter, (1997) J. Neurosci. 17, 6256-6263; Strittmatter et al., (1994) J. Neurosci. 14, 2327-2338). In outgrowth assays, proteins and peptides were added one hour after plating to minimize any effect on the total number of adherent cells. To test the effect of substrate-bound GST or GST-Nogo, the protein solutions were dried on poly-L-lysine coated glass, washed and then coated with laminin. For E12 cultures, the neuronal identity of cells was verified by staining with anti-neurofilament antibodies (2H3, Develomental Studies Hybridoma Bank) and neurites were traced by observation of rhodamine-phalloidin staining of F-actin in processes.
In the growth cone collapse assay, the response to Nogo was measured in the presence of various potential antagonistic peptides. […] This blockade supports the hypothesis that Nogo is a primary inhibitory component of CNS myelin.
For further testing, a synthetic peptide containing amino acid residues #1055-1094 of hNgR, acetylated at the […] was used [hereinafter “Peptide 140”]. […] Antagonist of Nogo-66 inhibitory activity may act by competing for, and thereby blocking NgR binding sites. To determine the antagonistic activity of Peptide 140, the above synthetic form of the peptide was added to E12 chick DRG explant cultures approximately 10 min before application of various concentrations of GST-NogoA (residues #1055-1120), TPA or Sema3A. 30 min later, cultures were fixed and growth cone collapse was assessed following staining with rhodamine-phalloidin.

For another test, the target named is T1, mouse NgR (Mus musculus, UniProt Q99PI8).
T1 construct: expressed in transfected cells; host or cells: COS-7
T1 sequence (Q99PI8 27-473): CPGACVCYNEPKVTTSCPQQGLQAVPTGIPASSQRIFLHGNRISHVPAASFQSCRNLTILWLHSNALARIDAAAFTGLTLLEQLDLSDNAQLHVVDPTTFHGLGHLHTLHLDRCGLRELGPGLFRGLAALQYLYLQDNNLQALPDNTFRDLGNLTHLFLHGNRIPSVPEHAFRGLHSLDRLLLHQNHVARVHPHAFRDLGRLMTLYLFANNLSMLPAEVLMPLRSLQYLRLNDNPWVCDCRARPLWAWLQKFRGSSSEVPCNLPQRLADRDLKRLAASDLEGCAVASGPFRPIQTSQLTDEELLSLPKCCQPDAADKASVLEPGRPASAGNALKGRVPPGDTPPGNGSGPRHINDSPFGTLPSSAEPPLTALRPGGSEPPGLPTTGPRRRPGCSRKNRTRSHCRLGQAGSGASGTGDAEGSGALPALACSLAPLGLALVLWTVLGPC
The test can be described thus: AP-fusion protein binding to COS-7 cells expressing mouse NgR. As for the experimental part: To determine if AP-fused deletion mutants of Nogo-66 bind mouse NgR (“mNgR”), COS-7 cells were transfected with a plasmid encoding the mouse NgR sequence ligated into pcDNA3.1. 48 hours after transfection, cells were washed with HBH (Hanks balanced salt solution containing 20 mM sodium Hepes, pH 7.05, and 1 mg ml^−1 bovine serum albumin) and then incubated with condition medium containing one of the AP-fusion proteins described above for 2 hours at 37° C. Cells were then washed, fixed, and left in HBH at 67° C. for 14-16 h to inactivate endogenous AP. AP-fusion protein binding to NgR expressing COS-7 cells was detected with the substrates NBT and BCIP (FIG. 13b).
To determine whether mNgR or mNgR deletion mutants bound to hNogo-A (1055-1120), wtNgR or mNgR deletion mutants were transfected into COS-7 cells. Forty-eight hours after the transfection, the transfected COS-7 cells were washed with hanks balanced salt solution containing 20 mM sodium HEPES, pH 7.05, and 1 mg/ml bovine serum albumin (BSA) [hereinafter “HBH”]. Cells were then incubated for 2 hours at 23° C. with a conditioned medium enriched with purified AP-hNogo-A (1055-1120) diluted in HBH. AP-fusion protein was detected as previously described for AP-Sema3A (Takahashi et al., Nature Neurosci. 1:487-493, 1998).

In test [2] the test system is GST-Nogo-66 inhibition of neurite outgrowth. The test can be described thus: Blockade of Nogo-induced inhibition of neurite outgrowth in chick DRG neurons. The class given is cell-based. As to the method:
as §1
Peptide 140 was tested for its ability to neutralize neurite outgrowth inhibition caused by the addition of GST fused to residues #1055-1120 of hNogoA (designated Nogo-66 in FIG. 16e). Plastic chamber slides were coated with 100 μg ml^−1 poly-L-lysine, washed, and dried. 3 μl drops of PBS containing GST-hNogoA(residues #1055-1120) were spotted and dried. Slides were then rinsed and coated with 10 μg ml fs24^−1 laminin before addition of dissociated E12 chick DRGs. Peptide 140 was added at the time of cell plating. Cultures were grown for 5-7 h after which neurite outgrowth was assessed.
Although the role of the GPI anchor may be to regulate NgR cellular compartmentalization, another possible role for the GPI linkage is to provide a NgR cleavage site. Cleaving NgR could serve to affect hNogo-A (1055-1120) signaling by rendering a neuron insensitive to hNogo-A (1055-1120) and by releasing soluble NgR that could then act on adjacent cells to modulate hNogo-A (1055-1120) signaling. To determine if soluble mNgR modulates hNogo-A (1055-1120)-dependent inhibition, a soluble mNgR was generated by inserting a truncated cDNA encoding mNgR residues 1-348 in frame with a myc-His carboxy tag into pcDNA3.1. The resulting plasmid expressing mNgREcto was transfected into HEK293T cells, and conditioned media containing mNgREcto protein was collected. To test the effect of mNgREcto on Nogo signaling, E13 dissociated DRGs were plated in the presence of hNogo-A (1055-1120) or myelin. The inhibitors were presented in either soluble or substrate-bound forms. For neurite outgrowth assays on hNogo-A (1055-1120) or myelin substrates, Permanox chamber slides were coated with 100μ, fs24 g ml^−1 poly-L-Lysine, washed, and then 3-μl drops of phosphate-buffered saline (hereinafter “PBS”) containing 0, 10, 50, or 150 ng of GST-hNogo-A (1055-1120) or myelin were spotted and dried. GST-hNogo-A (1055-1120) and myelin were prepared as previously described (GrandPre et al., supra; Fournier et al., J. Cell Biol. 149:411-421, 2000). After three PBS washes, slides were coated with 10 μg ml^−1 laminin. […]

For test [3], the system named is CNS myelin induced neurite outgrowth inhibition. The test can be described thus: Blockade of CNS myelin induced neurite outgrowth inhibition in chick DRG neurons. The class given is cell-based. As for the experimental part: To determine the antagonistic activity of Peptide 140 against CNS myelin, the above synthetic peptide was added approximately 10 min before application of CNS myelin. 30 min later, cultures were fixed and growth cone collapse was assessed following staining with rhodamine-phalloidin. For neurite outgrowth assays, plastic chamber slide were coated with 100 μg ml^−1 poly-L-lysine, washed, and dried. 3 μl drops of PBS containing CNS myelin were spotted and dried. Slides were then rinsed and coated with 10 μg ml fs24^−1 laminin before addition of dissociated E12 chick DRGs. Peptide 140, or the scrambled version of Peptide 140, was added at the time of cell plating. Cultures were grown for 5-7 h after which neurite outgrowth was assessed.
Although the role of the GPI anchor may be to regulate NgR cellular compartmentalization, another possible role for the GPI linkage is to provide a NgR cleavage site. Cleaving NgR could serve to affect hNogo-A (1055-1120) signaling by rendering a neuron insensitive to hNogo-A (1055-1120) and by releasing soluble NgR that could then act on adjacent cells to modulate hNogo-A (1055-1120) signaling. To determine if soluble mNgR modulates hNogo-A (1055-1120)-dependent inhibition, a soluble mNgR was generated by inserting a truncated cDNA encoding mNgR residues 1-348 in frame with a myc-His carboxy tag into pcDNA3.1. The resulting plasmid expressing mNgREcto was transfected into HEK293T cells, and conditioned media containing mNgREcto protein was collected. To test the effect of mNgREcto on Nogo signaling, E13 dissociated DRGs were plated in the presence of hNogo-A (1055-1120) or myelin. The inhibitors were presented in either soluble or substrate-bound forms. For neurite outgrowth assays on hNogo-A (1055-1120) or myelin substrates, Permanox chamber slides were coated with 100μ, fs24 g ml^−1 poly-L-Lysine, washed, and then 3-μl drops of phosphate-buffered saline (hereinafter “PBS”) containing 0, 10, 50, or 150 ng of GST-hNogo-A (1055-1120) or myelin were spotted and dried. GST-hNogo-A (1055-1120) and myelin were prepared as previously described (GrandPre et al., supra; Fournier et al., J. Cell Biol. 149:411-421, 2000). After three PBS washes, slides were coated with 10 μg ml^−1 laminin. Laminin was then aspirated and dissociated E13 chick DRG neurons were added. After 6-8 hr of outgrowth, cultures were fixed and neurite outgrowth lengths were assessed. For blockade experiments with NgREcto, spots were incubated with HEK293T cell conditioned media or NgREcto-transfected-HEK293T cell conditioned media following for 1 hr following the laminin coating step and before the addition of dissociated neurons. […] Thus, soluble fragments of NgR might serve physiologically or pharmacologically to reduce GST-hNogo-A (1055-1120) inhibition of axonal regeneration.

Consider “11-35: 25 amino acid peptide, residues 11-35 of the extracellular domain of Nogo (IQKSDEGHPFRAYLESEVAISEELV) [Peptide 11-35]”, for which, in test [1], the “blockade of Nogo-induced growth cone collapse (in words)” value is “blocking activity at μM concentrations”.

For “1-31: peptides having residues 1-31 of hNogoA (#1055-1120) (RIYKGVIQAIQKSDEGHPFRAYLESEVAISE; UniProt Q9NQC3 1055-1085, looked up, fragment) [Peptide 1-31]”, the “binding to NgR expressing COS-7 cells (in words)” value (shortened to “binding … (in words)”) in the test with mouse NgR was “almost no binding”.

On to “1-25: 25 amino acid peptide, residues 1-25 of the extracellular domain of Nogo (FRIYKGVIQAIQKSDEGHPFRAYLE) [Peptide 1-25]”, for which the “blockade of Nogo-induced growth cone collapse (in words)” value in test [1] is “blocking activity at μM concentrations”.

“21-45: 25 amino acid peptide, residues 21-45 of the extracellular domain of Nogo (RAYLESEVAISEELVQKYSNSALGH) [Peptide 21-45]”: in test [1], the “blockade of Nogo-induced growth cone collapse (in words)” value was “blocking activity at μM concentrations”.

For the substance “acetyl-SYVKEYAPIFAGKSRGEIKYQSIEIHEAQVRSDELVQSLN-amide (Ac-SYVKEYAPIFAGKSRGEIKYQSIEIHEAQVRSDELVQSLN-NH2) [scrambled version of Peptide 140, reference compound]”, the “blockade of Nogo-induced neurite outgrowth inhibition (in words)” value in test [2] was “does not result in blockade of outgrowth inhibition”. In addition, the “blockade of CNS myelin induced neurite outgrowth inhibition (in words)” value in test [3] is on record as “ineffective”.

With “2-40: peptides having residues 2-40 of the hNogoA (#1055-1120) (IYKGVIQAIQKSDEGHPFRAYLESEVAISEELVQKYSNS; UniProt Q9NQC3 1056-1094, looked up, fragment) [Peptide 2-40]”, the “binding … (in words)” value with mouse NgR is “bound mNgR well”.

Regarding “1-33: peptides having residues 1-33 of hNogoA (#1055-1120) (RIYKGVIQAIQKSDEGHPFRAYLESEVAISEEL; UniProt Q9NQC3 1055-1087, looked up, fragment) [Peptide 1-33]”, the “binding to mNgR, less compared to the strong binders” value with mouse NgR (data not shown) is “approximately 50%”.

Regarding “10-40: peptides having residues 10-40 of hNogoA (#1055-1120) (IQKSDEGHPFRAYLESEVAISEELVQKYSNS) [Peptide 10-40]”, the “binding … (in words)” value with mouse NgR is given as “no binding”.

Take “1-34: peptides having residues 1-34 of hNogoA (#1055-1120) (RIYKGVIQAIQKSDEGHPFRAYLESEVAISEELV; UniProt Q9NQC3 1055-1088, looked up, fragment) [Peptide 1-34]”: the “binding … (in words)” value with mouse NgR is “bind strongly and almost equivalently”.

Regarding “1-30: peptides having residues 1-30 of hNogoA (#1055-1120) (RIYKGVIQAIQKSDEGHPFRAYLESEVAIS; UniProt Q9NQC3 1055-1084, looked up, fragment) [Peptide 1-30]”, the “binding … (in words)” value with mouse NgR is “almost no binding”.
